From article PMC6831851 (2019)

B1: neuron-derived neurotrophic factor (NENF) [human (endogenous in NTera2 and in fibroblasts)] / DJ-1 WT fused with FLAG [human] (parent complex)
chain 1: GQTPRPAERGPPVRLFTEEELARYGGEEEDQPIYLAVKGVVFDVTSGKEFYGRGAPYNALTGKDSTRGVAKMSLDPADLTHDTTGLTAKELEALDEVFTKVYKAKYPIVGYTARRILNEDGSPNLDFKPEDQPHFDIKDEF
chain 2: MASKRALVILAKGAEEMETVIPVDVMRRAGIKVTVAGLAGKDPVQCSRDVVICPDASLEDAKKEGPYDVVVLPGGNLGAQNLSESAAVKEILKEQENRKGLIAAICAGPTALLAHEIGFGSKVTTHPLAKDKMMNGGHYTYSENRVEKDGLILTSRGPGTSFEFALAIVEALNGKEVAAQVKAPLVLKD

Variants of: B1
Assay: co-immunoprecipitation (anti-FLAG IP, immunoblot with anti-NENF), band intensity; DJ-1 KO DNLCs; NENF band relative to FLAG (LC)

Row | Variant | percent of parent
1 | chain 2 E163K | 0%
2 | chain 2 C53A | 23%

Now from value to variant:

Row | percent of parent | Variant
3 | 73% | chain 2 H126A
4 | 45% | chain 2 V51A
